From paper PMC12527917, “Regulation of kinesin-2 motility by its β-hairpin motif” (Nature Structural & Molecular Biology, 2025)

B3: Kap3 (human) (natural protein, UniProt Q92845 1-792, looked up)
chain: MQGEDARYLKRKVKGGNIDVHPSEKALIVHYEVEATILGEMGDPMLGERKECQKIIRLKSLNANTDITSLARKVVEECKLIHPSKLNEVEQLLYYLQNRRDSLSGKEKKEKSSKPKDPPPFEGMEIDEVANINDMDEYIELLYEDIPDKVRGSALILQLARNPDNLEELLLNETALGALARVLREDWKQSVELATNIIYIFFCFSSFSQFHGLITHYKIGALCMNIIDHELKRHELWQEELSKKKKAVDEDPENQTLRKDYEKTFKKYQGLVVKQEQLLRVALYLLLNLAEDTRTELKMRNKNIVHMLVKALDRDNFELLILVVSFLKKLSIFMENKNDMVEMDIVEKLVKMIPCEHEDLLNITLRLLLNLSFDTGLRNKMVQVGLLPKLTALLGNDNYKQIAMCVLYHISMDDRFKSMFAYTDCIPQLMKMLFECSDERIDLELISFCINLAANKRNVQLICEGNGLKMLMKRALKFKDPLLMKMIRNISQHDGPTKNLFIDYVGDLAAQISNDEEEEFVIECLGTLANLTIPDLDWELVLKEYKLVPYLKDKLKPGAAEDDLVLEVVIMIGTVSMDDSCAALLAKSGIIPALIELLNAQQEDDEFVCQIIYVFYQMVFHQATRDVIIKETQAPAYLIDLMHDKNNEIRKVCDNTLDIIAEYDEEWAKKIQSEKFRWHNSQWLEMVESRQMDESEQYLYGDDRIEPYIHEGDILERPDLFYNSDGLIASEGAISPDFFNDYHLQNGDVVGQHSFPGSLGMDGFGQPVGILGRPATAYGFRPDEPYYYGYGS
notes: Kap3, human, synthesised gene; SNAPf labelled with SNAP-Cell TMR-Star in the TIRF colocalisation assay; No truncation is mentioned; probably the whole protein; source: Sf9 (baculovirus), purified (IgG Sepharose, TEV elution, SEC); not shown: ZZ, N-terminal, cleaved; SNAPf, N-terminal, kept

Key:
Conditions in all cases: both partners purified
[1] = target: B3; assay: single-molecule TIRF colocalisation; Alexa-Fluor-647-labelled Kif3AB/C constructs on surface-attached microtubules (1 mM AMPPNP in Fig. 4c), TMR-labelled Kap3 at 1 nM, buffer B, 25 °C; fraction of Kif3A spots with Kap3 signal
[2] = target: T1, Kif3A^ΔC103 (human, UniProt Q9Y496 1-596); assay: SEC; motor subunits coexpressed in Sf9, purified through the ZZ tag of Kif3B/C on IgG Sepharose, TEV elution, Superose 6 Increase 3.2/300 in buffer A (50 mM Tris-HCl pH 7.5, 150 mM K-acetate, 2 mM Mg-acetate, 5% glycerol, 1 mM DTT, 0.2 mM Mg-ATP); SDS-PAGE of peak fraction
T1 construct: Kif3A, human, 103 amino acids truncated from the C terminus; also called Kif3A^Δ103; source: Sf9 (baculovirus), coexpressed with Kif3B constructs, purified (IgG Sepharose, TEV elution, SEC); not shown: SNAPf, C-terminal, kept

[3] = target: T2, Kif3A^ΔC89–Kif3B heterodimer (ΔInt1) (human, UniProt Q9Y496 1-610; O15066 1-747); assay: single-molecule TIRF colocalisation; Alexa-Fluor-647-labelled Kif3AB/C constructs on surface-attached microtubules (1 mM AMPPNP in Fig. 4c), TMR-labelled Kap3 at 1 nM, buffer B, 25 °C; fraction of Kif3A spots with Kap3 signal
T2 construct: Kif3A, human, 89 amino acids truncated from the C terminus (within the β-hairpin motif); Kif3B, human, synthesised gene, full-length subunit; also called Kif3A^Δ89B; source: Sf9 (baculovirus), coexpressed, purified (IgG Sepharose, TEV elution, SEC); not shown: SNAPf, C-terminal, kept; ZZ, N-terminal, cleaved

[4] = target: T3, Kif3A–Kif3B^ΔC90 heterodimer (ΔInt3) (human, UniProt Q9Y496 1-699; O15066 1-657); assay: as above
T3 construct: Kif3A, human, synthesised gene, full-length subunit; Kif3B, human, 90 amino acids truncated from the C terminus; source: Sf9 (baculovirus), coexpressed, purified (IgG Sepharose, TEV elution, SEC); not shown: SNAPf, C-terminal, kept; ZZ, N-terminal, cleaved

[5] = target: T4, Kif3A–Kif3B^ΔC114 heterodimer (ΔInt2+3) (human, UniProt Q9Y496 1-699; O15066 1-633); assay: as above
T4 construct: Kif3A, human, synthesised gene, full-length subunit; Kif3B, human, 114 amino acids truncated from the C terminus; source: Sf9 (baculovirus), coexpressed, purified (IgG Sepharose, TEV elution, SEC); not shown: SNAPf, C-terminal, kept; ZZ, N-terminal, cleaved

[6] = target: T5, Kif3AB heterodimer, full length (human, UniProt Q9Y496 1-699; O15066 1-747); assay: as above
T5 construct: Kif3A, human, synthesised gene, full-length subunit; Kif3B, human, synthesised gene, full-length subunit; SNAPf on Kif3A labelled with Alexa Fluor 647 in the TIRF assays; A Kif3A construct without SNAPf was also cloned; also called Kif3A–Kif3B; Kif3AB^WT; source: Sf9 (baculovirus), coexpressed, purified (IgG Sepharose, TEV elution, SEC); not shown: SNAPf, C-terminal, kept; ZZ, N-terminal, cleaved
T5 sequence (Q9Y496 whole entry, one chain of several): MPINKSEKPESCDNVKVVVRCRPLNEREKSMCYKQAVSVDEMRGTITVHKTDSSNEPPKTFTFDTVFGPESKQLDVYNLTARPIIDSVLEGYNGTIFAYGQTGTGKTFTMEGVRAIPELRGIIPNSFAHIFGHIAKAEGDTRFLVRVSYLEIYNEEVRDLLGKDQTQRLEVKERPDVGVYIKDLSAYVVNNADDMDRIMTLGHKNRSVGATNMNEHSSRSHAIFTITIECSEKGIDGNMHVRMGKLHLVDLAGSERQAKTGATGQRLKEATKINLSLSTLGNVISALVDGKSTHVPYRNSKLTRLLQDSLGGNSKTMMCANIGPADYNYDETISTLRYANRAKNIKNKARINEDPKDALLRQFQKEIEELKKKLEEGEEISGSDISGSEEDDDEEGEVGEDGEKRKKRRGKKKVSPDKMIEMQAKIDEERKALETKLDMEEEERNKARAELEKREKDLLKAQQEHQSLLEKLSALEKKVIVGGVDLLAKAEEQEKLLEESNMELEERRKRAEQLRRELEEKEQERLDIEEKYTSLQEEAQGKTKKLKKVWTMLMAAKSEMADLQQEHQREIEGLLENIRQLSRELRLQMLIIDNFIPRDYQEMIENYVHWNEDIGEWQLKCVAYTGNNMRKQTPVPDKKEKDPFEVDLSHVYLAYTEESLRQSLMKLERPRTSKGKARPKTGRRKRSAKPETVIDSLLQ

T1 sequence (Q9Y496 1-596, stated change not applied): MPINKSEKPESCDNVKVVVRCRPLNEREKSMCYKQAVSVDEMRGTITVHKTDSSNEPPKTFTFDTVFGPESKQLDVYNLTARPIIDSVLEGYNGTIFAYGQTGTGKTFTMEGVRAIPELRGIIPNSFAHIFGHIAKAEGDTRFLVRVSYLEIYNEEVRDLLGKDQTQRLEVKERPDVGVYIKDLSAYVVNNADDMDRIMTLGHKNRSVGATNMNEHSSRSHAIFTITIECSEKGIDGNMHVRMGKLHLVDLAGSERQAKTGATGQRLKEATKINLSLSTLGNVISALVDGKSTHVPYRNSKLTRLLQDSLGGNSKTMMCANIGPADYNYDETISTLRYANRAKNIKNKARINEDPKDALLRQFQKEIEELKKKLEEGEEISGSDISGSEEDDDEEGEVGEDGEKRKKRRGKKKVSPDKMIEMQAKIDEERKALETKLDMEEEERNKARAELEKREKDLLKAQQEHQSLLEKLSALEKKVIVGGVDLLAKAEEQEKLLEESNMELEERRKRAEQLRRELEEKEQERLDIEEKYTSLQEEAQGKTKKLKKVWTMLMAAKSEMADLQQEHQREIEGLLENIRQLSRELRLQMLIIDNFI
T3 sequence (Q9Y496 whole entry, stated change not applied, the tested form may be a part, one chain of several): as the sequence (Q9Y496 whole entry, one chain of several) above
T4 sequence (Q9Y496 whole entry, stated change not applied, the tested form may be a part, one chain of several): as the sequence (Q9Y496 whole entry, one chain of several) above
T2 sequence (Q9Y496 1-610, stated change not applied, one chain of several): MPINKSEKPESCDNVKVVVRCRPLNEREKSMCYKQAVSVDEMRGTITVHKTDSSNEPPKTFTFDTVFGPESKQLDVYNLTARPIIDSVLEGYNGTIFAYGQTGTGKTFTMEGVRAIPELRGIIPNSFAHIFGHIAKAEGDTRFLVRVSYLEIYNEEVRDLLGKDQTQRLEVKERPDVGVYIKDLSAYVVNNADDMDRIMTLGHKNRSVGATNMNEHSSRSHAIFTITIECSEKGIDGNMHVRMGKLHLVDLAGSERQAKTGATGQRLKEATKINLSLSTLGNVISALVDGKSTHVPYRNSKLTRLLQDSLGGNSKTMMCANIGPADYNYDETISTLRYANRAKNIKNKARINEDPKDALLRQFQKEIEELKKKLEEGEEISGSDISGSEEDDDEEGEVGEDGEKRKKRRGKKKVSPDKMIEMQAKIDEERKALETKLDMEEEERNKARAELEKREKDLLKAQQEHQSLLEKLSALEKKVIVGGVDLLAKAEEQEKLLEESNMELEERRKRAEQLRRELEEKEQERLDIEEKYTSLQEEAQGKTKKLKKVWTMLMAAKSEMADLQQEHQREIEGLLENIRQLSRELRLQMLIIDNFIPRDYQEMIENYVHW

B1: Kif3B (human kinesin-2 motor subunit), full length (natural protein, UniProt O15066 1-747, looked up)
chain: MSKLKSSESVRVVVRCRPMNGKEKAASYDKVVDVDVKLGQVSVKNPKGTAHEMPKTFTFDAVYDWNAKQFELYDETFRPLVDSVLQGFNGTIFAYGQTGTGKTYTMEGIRGDPEKRGVIPNSFDHIFTHISRSQNQQYLVRASYLEIYQEEIRDLLSKDQTKRLELKERPDTGVYVKDLSSFVTKSVKEIEHVMNVGNQNRSVGATNMNEHSSRSHAIFVITIECSEVGLDGENHIRVGKLNLVDLAGSERQAKTGAQGERLKEATKINLSLSALGNVISALVDGKSTHIPYRDSKLTRLLQDSLGGNAKTVMVANVGPASYNVEETLTTLRYANRAKNIKNKPRVNEDPKDALLREFQEEIARLKAQLEKRSIGRRKRREKRREGGGSGGGGEEEEEEGEEGEEEGDDKDDYWREQQEKLEIEKRAIVEDHSLVAEEKMRLLKEKEKKMEDLRREKDAAEMLGAKIKAMESKLLVGGKNIVDHTNEQQKILEQKRQEIAEQKRREREIQQQMESRDEETLELKETYSSLQQEVDIKTKKLKKLFSKLQAVKAEIHDLQEEHIKERQELEQTQNELTRELKLKHLIIENFIPLEEKSKIMNRAFFDEEEDHWKLHPITRLENQQMMKRPVSAVGYKRPLSQHARMSMMIRPEARYRAENIVLLELDMPSRTTRDYEGPAIAPKVQAALDAALQDEDEIQVDASSFESTANKKSKARPKSGRKSGSSSSSSGTPASQLYPQSRGLVPK
notes: Kif3B, human, synthesised gene, full-length subunit; source: Sf9 (baculovirus), coexpressed with Kif3A, purified (IgG Sepharose, TEV elution, SEC); not shown: ZZ, N-terminal, cleaved
[1]
  binding result: binds

B2: Kif3B^ΔC156 (domain or fragment, human, UniProt O15066 1-591, looked up)
chain: MSKLKSSESVRVVVRCRPMNGKEKAASYDKVVDVDVKLGQVSVKNPKGTAHEMPKTFTFDAVYDWNAKQFELYDETFRPLVDSVLQGFNGTIFAYGQTGTGKTYTMEGIRGDPEKRGVIPNSFDHIFTHISRSQNQQYLVRASYLEIYQEEIRDLLSKDQTKRLELKERPDTGVYVKDLSSFVTKSVKEIEHVMNVGNQNRSVGATNMNEHSSRSHAIFVITIECSEVGLDGENHIRVGKLNLVDLAGSERQAKTGAQGERLKEATKINLSLSALGNVISALVDGKSTHIPYRDSKLTRLLQDSLGGNAKTVMVANVGPASYNVEETLTTLRYANRAKNIKNKPRVNEDPKDALLREFQEEIARLKAQLEKRSIGRRKRREKRREGGGSGGGGEEEEEEGEEGEEEGDDKDDYWREQQEKLEIEKRAIVEDHSLVAEEKMRLLKEKEKKMEDLRREKDAAEMLGAKIKAMESKLLVGGKNIVDHTNEQQKILEQKRQEIAEQKRREREIQQQMESRDEETLELKETYSSLQQEVDIKTKKLKKLFSKLQAVKAEIHDLQEEHIKERQELEQTQNELTRELKLKHLIIENFI
notes: Kif3B, human, 156 amino acids truncated from the C terminus (removes the Kif3B β-hairpin motif); also called Kif3B^Δ156; source: Sf9 (baculovirus), coexpressed with Kif3A^ΔC103, purified (IgG Sepharose, TEV elution, SEC); not shown: ZZ, N-terminal, cleaved
[2]
  binding result: binds

## B3
[3]
  percent of Kif3AB molecules with colocalised Kap3: 26%
[4]
  percent of Kif3AB molecules with colocalised Kap3: 62%
[5]
  percent of Kif3AB molecules with colocalised Kap3: 50%
[6]
  percent of Kif3AB molecules with colocalised Kap3: 82%
